Measured values: patent US20140363465A1

Target: SIINFEKL:H-2K^b complex on the surface of A3.1A7 macrophage cells (chicken)
Experiment: cell-based or functional assay

- IL-2 production by the RF33.70 T cell hybridoma (sandwich ELISA), SIINFEKL peptide concentration giving a detectable response: < 0.1 pg/mL
- level of IL-2 production generated in response to free SIINFEKL peptide: < 275 pg/mL
Sequence: T cell receptor of the RF33.70 T-T hybridoma (CD8+, SIINFEKL-specific, H-2K^b-restricted) (TCR)
